Data: the supplement of paper PMC9170038

Tested on: MS2 coat protein
Test: apparent KD of MS2 coat protein; designed switch direction (-1 OFF switch, 1 ON switch): -1; higher = weaker reporter binding
Outline: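 Each step of the titration lasted 0.8–1.5 h at the lowest concentration and 10–20 min at the highest. The protein, SNAP-549-labelled MS2 coat protein, went from 0.7 or 1.5 nM doubling to 3 µM over RNA switches transcribed on Illumina chips by stalled E. coli RNA polymerase. Normalised cluster fluorescence was curve-fitted, and the per-design median over clusters is given as apparent KD.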

[1] = input ligand: microRNA oligo, concentration not stated
[2] = Eterna round: R95, input ligand: microRNA oligo, concentration not stated
[3] = Eterna round: R95, input ligand: FMN 200 uM
[4] = Eterna round: R95, input ligand: none

Row | Sequence | apparent KD of MS2 coat protein [1] [nM] | apparent KD of MS2 coat protein (input ligand: FMN 200 uM) [nM] | apparent KD of MS2 coat protein (input ligand: none) [nM] | other results
1 | UAUAUAUAGUAAGGAUAUGUAUUCAUUUUAUAAACAGAAGGUACUGACAUGAGGAUCACCCAUGUUUUAGUGUGGGCAUGUAGA [JMF's solution 10] (Eterna round: R96, puzzle: Exclusion NG 1) | 64.1 | – | – | –
2 | UAUAUAUAGUAAGGAUAUGUAUUUAUUUGAUAAACAGAAGGUACUGACAUGAGGAUCACCCAUGUUUUAGUGUGGGCAUGUAGA [JMF's solution 20] (Eterna round: R96, puzzle: Exclusion NG 1) | 69.9 | – | – | –
3 | UAUAUAUAGUAAGGAUAUGUAUUUAUUUUACAAACAGAAGGUACUGACAUGAGGAUCACCCAUGUUUUAGUGUGGGCAUGUAGA [JMF's solution 24] (Eterna round: R96, puzzle: Exclusion NG 1) | 48.8 | – | – | –
4 | UAUAUAUAGUAAGGAUAUGUAUUUCUUUUAUAAACAGAAGGUACUGACAUGAGGAUCACCCAUGUUUUAGUGUGGGCAUGUAGA [JMF's solution 12] (Eterna round: R96, puzzle: Exclusion NG 1) | 63.1 | – | – | –
5 | UAUAUGUCAGGAUAUCGAUUGGAAUGGAAUUUAGUUUUGGUUGAGAAGGGACAUGAGGAUCACCCAUGUUUUUC [EX4 #62] (Eterna round: R97, puzzle: Exclusion 4) | – | 76.7 | 32.1 | –
6 | UAUCCACAUGAGGAUCACCCAUGUGAGGAUAUGUCCAUAUUCGGCAAAUCGGAUAUGGACAGAAGGCACACCGG [JR_Exclusion1_Sub011] (Eterna round: R96, puzzle: Exclusion 1) | 28.5 | 114 | 35.2 | –
7 | UAUCCACAUGAGGAUCACCCAUGUGAGGAUAUGUCCAUAUUCGGCAAAUCGGAUAUGGACAGAAGGCACACCGG [JR_Exclusion1_Sub011] (puzzle: Exclusion 1) | – | – | – | apparent KD of MS2 coat protein [2]: 35.4 nM
8 | UAUCCGACAGGAUAUACAUGAGGAUCACCCAUGUACCCACUGUAUGUAACCUCAAACUGUAGAAGGGUUGAUAU [Eternabot (L1) Solution 18] (Eterna round: R97, puzzle: Exclusion 3) | – | 21.2 | 28.6 | –
9 | UAUCGCAAGCGAAGAUCCCACAUGAGGAUCACCCAUGUGCUCGUCUUAUAAGGUACUGUGACGAUAGUCACGGUACC [Mat - Sensor, turn-off var - Eli Mod - D77] (Eterna round: R97, puzzle: Sensor, turn-off variant 1) | – | 33.6 | 24.9 | –
10 | UAUCGGGACUGAGGAUAUUCGUUCGAACACGAAGAAGAAGGUAGUGUCAGGGACAUGAGGAUCACCCAUGUGAUCUCAGUCCUA [JL ViennaUCT Erinle mod 2] (Eterna round: R96, puzzle: Exclusion NG 1) | 67.9 | 130 | 100 | –
11 | UAUCUAUGAGGAUAUCAUAGUAGUUACAUGAGGAUCACCCAUGUCAUGACAGAACUGGGAUGAGAAGGCAUUCGUU [Eternabot (L2) Solution 73] (Eterna round: R97, puzzle: Exclusion 5) | – | 291 | 447 | –
12 | UAUGAGUCAGGAUAUUAGUAGUGUGUGGAUACAUAUAUUGCUGAGAAGGGACAUGAGGAUCACCCAUGUAUAAG [JR_Ex4_Sub056] (Eterna round: R97, puzzle: Exclusion 4) | – | 65.3 | 26.1 | –
13 | UAUGAUUUAGGAUAUUGUACUGCUGACAUGAGGAUCACCCAUGUAUGCUAACUCGGCCGUCGAGAAGGAAAUUAUG [BotMod 28 - Jieux - Exclusion 5] (Eterna round: R97, puzzle: Exclusion 5) | – | 26.1 | 52.6 | –
14 | UAUGGGUCUACAGGAUAUUCCAGUAGAUAGAAGGGAGAAGGGUGGGCCUAUACUUGAGGAUCACCCAAGUGAAAAGGGUCAUCC [Mutated MS2 EX1.13] (Eterna round: R96, puzzle: Exclusion NG 1) | 24.8 | 27.9 | 36.6 | –
15 | UAUUAAUGCAAGGAUAUGCUUUUAAUUUUUUUUGCAGAAGGUGCAACAUGAGGAUCACCCAUGUUUCAGGGUAU [JR_E6_Sub031] (puzzle: Exclusion 6) | – | – | – | apparent KD of MS2 coat protein [2]: 35.1 nM
16 | UAUUAGCAAGCGAAAUCCCACAUGAGGAUCACCCAUGUAAAUAAAAGCUCCAGAAUUACUGGAGCAGCUCGUCUUAU [Winner reversed engineered 18] (Eterna round: R97, puzzle: Sensor, turn-off variant 1) | – | 29.8 | 24.5 | –
17 | UAUUAGCAAGCGAGAUCCCACAUGAGGAUCACCCAUGUAGCAUCCAGAAUUACUGGGUGCAAAAGCUCGUCUUAUUA [Winner reversed engineered 4] (Eterna round: R97, puzzle: Sensor, turn-off variant 1) | – | 25.4 | 26.1 | –
18 | UAUUAGCAAGUAAGAUCCCACAUGAGGAUCACCCAUGUGCUCGUCUUAUAAGGUACUGUGACGAAAGUCACGGUACC [Sensor 3, v1 - 88] (Eterna round: R96, puzzle: Sensor v3, turn-off variant 1) | 313 | 16.7 | 18.1 | –
19 | UAUUAGCAAGUAAGAUCCCACAUGAGGAUCACCCAUGUGCUCGUCUUAUAAGGUACUGUGACGAAAGUCACGGUACC [Sensor 3, v1 - 88] (puzzle: Sensor v3, turn-off variant 1) | – | – | – | apparent KD of MS2 coat protein [3]: 12.6 nM; apparent KD of MS2 coat protein [2]: 1040 nM; apparent KD of MS2 coat protein [4]: 16.5 nM
20 | UAUUAGCAAGUAAGAUCCCACAUGAGGAUCACCCAUGUGCUCGUCUUAUAAGGUACUGUGACGAAAGUCACGGUACC [Sensor 3, v1 - 95 v1] (Eterna round: R97, puzzle: Sensor, turn-off variant 1) | – | 18.3 | 19.2 | –
21 | UAUUAGCAAGUGAGAUCCCACAUGAGGAUCACCCAUGUGCUCGUCUUAUAAGGUACUGUGACGAGAGUCACGGUACC [Mat - Sensor, turn-off var - Eli Mod - D2] (Eterna round: R97, puzzle: Sensor, turn-off variant 1) | – | 46.1 | 44.7 | –
22 | UAUUAGCAAGUGAGGUCCCACAUGAGGAUCACCCAUGUGCUCGUCUUAUAAGGUACUGUGACGAAAGUCACGGUACC [Sensor 3, v1 - 95 v4] (Eterna round: R97, puzzle: Sensor, turn-off variant 1) | – | 48.7 | 40.8 | –
23 | UAUUCUAGAUAGGAUAUACUUUUUUUUUUUUUCGUAGAAGGAUCUACAUGAGGAUCACCCAUGUUAUCAGCAGU [JR_E6_Sub011] (puzzle: Exclusion 6) | – | – | – | apparent KD of MS2 coat protein [3]: 27.5 nM; apparent KD of MS2 coat protein [2]: 30.2 nM; apparent KD of MS2 coat protein [4]: 22.4 nM
24 | UAUUGCAAGCGAAGAUCCCACAUGAGGAUCACCCAUGUGCUCGUCUUAUAAGGUACUGUGACGAUAGUCACGGUACC [Mat - Sensor, turn-off var - Eli Mod - D76] (Eterna round: R97, puzzle: Sensor, turn-off variant 1) | – | 34 | 30.6 | –
25 | UAUUGCAAGUGAGGAUAUGACAUGAGGAUCACCCAUGUAAAGGGAGUUGGCUAUAUAGCAAGAUUUCAGAAGGCACUACUGUAU [JR_ExcNG2_Sub006] (Eterna round: R96, puzzle: Exclusion NG 2) | 32.6 | 133 | 56.3 | –
